Results reported in paper PMC7547085, “Specific and direct modulation of the interaction between adhesion GPCR GPR56/ADGRG1 and tissue transglutaminase 2 using synthetic ligands” (Scientific Reports, 2020).

B1: mouse full-length GPR56 (GPR56 FL), wild type, on HEK293T cells [mouse] / mouse tissue transglutaminase 2 C-terminal D3D4 domains (mTG2 D3D4) [modified: biotin on the AVI-tag; biotin on the AVI-tag] [mouse] (parent)
chain 1: TGVAMRIRVGDSMSMGNDFDVFAHIGNDTSETRECRLLLCARTVSYNGVLGPECGTEDINLTLDPYSENSIPLRILYEKYSGCLTESNLIKVRGLLIEPAANSYLLAERDLYLENPEIKIRVLGEPKQNRKLVAEVSLKNPLSDPLYDCIFTVEGAGLTKEQKSVEVSDPVPAGDLVKARVDLFPTDIGLHKLVVNFQCDKLKSVKGYRNVIIGPA
chain 2: GSPREDFRFCGQRNQTQQSTLHYDQSSEPHIFVWNTEETLTIRAPFLAAPDIPRFFPEPRGLYHFCLYWSRHTGRLHLRYGKHDYLLSSQASRLLCFQKQEQSLKQGAPLIATSVSSWQIPQNTSLPGAPSFIFSFHNAPHKVSHNASVDMCDLKKELQQLSRYLQHPQKAAKRPTAAFISQQLQSLESKLTSVSFLGDTLSFEEDRVNATVWKLPPTAGLEDLHIHSQKEEEQSEVQAYSLLLPRAVFQQTRGRRRDDAKRLLVVDFSSQALFQDKNSSQVLGEKVLGIVVQNTKVTNLSDPVVLTFQHQPQPKNVTLQCVFWVEDPASSSTGSWSSAGCETVSRDTQTSCLCNHLTYFAVLMVSSTEVEATHKHYLTLLSYVGCVISALACVFTIAAYLCSRRKSRDYTIKVHMNLLSAVFLLDVSFLLSEPVALTGSEAACRTSAMFLHFSLLACLSWMGLEGYNLYRLVVEVFGTYVPGYLLKLSIVGWGFPVFLVTLVALVDVNNYGPIILAVRRTPERVTYPSMCWIRDSLVSYVTNLGLFSLVFLFNLAMLATMVVQILRLRPHSQNWPHVLTLLGLSLVLGLPWALVFFSFASGTFQLVILYLFSIITSFQGFLIFLWYWSMRFQAQGGPSPLKNNSDSAKLPISSGSTSSSRI

Variants of: B1
Test: flow cytometry on cells
Conditions: with mouse tissue transglutaminase 2 C-terminal D3D4 domains (mTG2 D3D4) [modified: biotin on the AVI-tag, 5 nM TG2 D3D4 (tetramerized), GPR56 FL constructs expressed on HEK293T cells, n = 3, parent: 1, read off a plot

Variant	ratio to parent
chain 2 H64A S125A	6.6
chain 2 L62D	0.21
chain 2 H64A	0.64
chain 2 L62D S125A	0.33
chain 2 Y68A	0.33

Further lines, results first:

ratio to parent	Variant
8.7	chain 2 S125A
0.2	chain 2 H64A Y68A R79D
4.1	chain 2 H64A Y68A S125A
0.22	chain 2 H64A Y68A
